In FireProtDB (doi:10.1021/bi00358a035):
Where “and” joins values, the source holds several entries; their conditions need not be identical. Identical values can stand only once.

B1: Tryptophan synthase alpha chain, P0A877 (parent)
chain: MERYESLFAQLKERKEGAFVPFVTLGDPGIEQSLKIIDTLIEAGADALELGIPFSDPLADGPTIQNATLRAFAAGVTPAQCFEMLALIRQKHPTIPIGLLMYANLVFNKGIDEFYAQCEKVGVDSVLVADVPVEESAPFRQAALRHNVAPIFICPPNADDDLLRQIASYGRGYTYLLSRAGVTGAENRAALPLNHLVAKLKEYNAAPPLQGFGISAPDQVKAAIDAGAAGAISGSAIVKIIEQHINEPEKMLAALKVFVQPMKAATRS

Variants of: B1
Details: Escherichia coli (strain K12); pH 7.8; 25 °C; Urea; CD; Potassium phosphate 10 mM; transition: 3; reversible: yes (>90%); structure 1WQ5; whole UniProt chain shown

MERYESLFAQLKERKEGAFVPFVTLGDPGIEQSLKIIDTLIEAGADALELGIPFSDPLADGPTIQNATLRAFAAGVTPAQCFEMLALIRQKHPTIPIGLLMYANLVFNKGIDEFYAQCEKVGVDSVLVADVPVEESAPFRQAALRHNVAPIFICPPNADDDLLRQIASYGRGYTYLLSRAGVTGAENRAALPLNHLVAKLKEYNAAPPLQGFGISAPDQVKAAIDAGAAGAISDSAIVKIIEQHINEPEKMLAALKVFVQPMKAATRS [G234D]
ddG of mutation (higher = less stable): -1.4 kcal/mol and -2 kcal/mol | denaturant m value: 2.6 kcal/mol/M and 1.8 kcal/mol/M | denaturant midpoint (higher = more stable): 2.78 M and 3.99 M | unfolding free energy: 7.1 kcal/mol and 7 kcal/mol

MERYESLFAQLKERKEGAFVPFVTLGDPGIEQSLKIIDTLIEAGADALELGIPFSDPLADGPTIQNATLRAFAAGVTPAQCFEMLALIRQKHPTIPIGLLMYANLVFNKGIDEFYAQCEKVGVDSVLVADVPVEESAPFRQAALRHNVAPIFICPPNADDDLLRQIASYGRGYTYLLSRAGVTGAENRAALPLNHLVAKLKEYNAAPPLQGFGISAPDQVKAAIDAGAAGAISKSAIVKIIEQHINEPEKMLAALKVFVQPMKAATRS [G234K]
denaturant m value: 2.3 kcal/mol/M and 1.2 kcal/mol/M | denaturant midpoint (higher = more stable): 2.65 M and 3.81 M | unfolding free energy: 6.2 kcal/mol and 4.7 kcal/mol

MERYESLFAQLKERKEGAFVPFVTLGDPGIEQSLKIIDTLIEAGADALELGIPFSDPLADGPTIQNATLRAFAAGVTPAQCFEMLALIRQKHPTIPIGLLMYANLVFNKGIDEFYAQCEKVGVDSVLVADVPVEESAPFRQAALRHNVAPIFICPPNADDDLLRQIASYGRGYTYLLSRAGVTGAENRAALPLNHLVAKLKEYNAAPPLQEFGISAPDQVKAAIDAGAAGAISGSAIVKIIEQHINEPEKMLAALKVFVQPMKAATRS [G211E]
denaturant m value: 3 kcal/mol/M and 1.5 kcal/mol/M | denaturant midpoint (higher = more stable): 2.73 M and 3.72 M | unfolding free energy: 8.1 kcal/mol and 5.4 kcal/mol

MERYESLFAQLKERKEGAFVPLVTLGDPGIEQSLKIIDTLIEAGADALELGIPFSDPLADGPTIQNATLRAFAAGVTPAQCFEMLALIRQKHPTIPIGLLMYANLVFNKGIDEFYAQCEKVGVDSVLVADVPVEESAPFRQAALRHNVAPIFICPPNADDDLLRQIASYGRGYTYLLSRAGVTGAENRAALPLNHLVAKLKEYNAAPPLQGFGISAPDQVKAAIDAGAAGAISGSAIVKIIEQHINEPEKMLAALKVFVQPMKAATRS [F22L]
denaturant m value: 3.1 kcal/mol/M and 1.2 kcal/mol/M | denaturant midpoint (higher = more stable): 2.54 M and 3.62 M | unfolding free energy: 7.9 kcal/mol and 4.2 kcal/mol

MERYESLFAQLKERKEGAFVPFVTLGDPGIEQSLKIIDTLIEAGADALMLGIPFSDPLADGPTIQNATLRAFAAGVTPAQCFEMLALIRQKHPTIPIGLLMYANLVFNKGIDEFYAQCEKVGVDSVLVADVPVEESAPFRQAALRHNVAPIFICPPNADDDLLRQIASYGRGYTYLLSRAGVTGAENRAALPLNHLVAKLKEYNAAPPLQGFGISAPDQVKAAIDAGAAGAISGSAIVKIIEQHINEPEKMLAALKVFVQPMKAATRS [E49M]
ddG of mutation (higher = less stable): -3.7 kcal/mol and -2 kcal/mol | denaturant m value: 2.8 kcal/mol/M and 1.4 kcal/mol/M | denaturant midpoint (higher = more stable): 3.33 M and 4.92 M | unfolding free energy: 9.4 kcal/mol and 7 kcal/mol
